The values below are quoted from earlier work in patent publication US7759315B2, “Treatment of inflammatory conditions of the intestine” (CSL Behring AG, priority 2005, dated 2010).

Non-standard residues stand in square brackets, D forms with d. No end group written: not given here. Aib = CC(C)(N)C(=O)O

The series concerns the target T1, LCAT (Homo sapiens, UniProt P04180).
T1 sequence (P04180 25-440): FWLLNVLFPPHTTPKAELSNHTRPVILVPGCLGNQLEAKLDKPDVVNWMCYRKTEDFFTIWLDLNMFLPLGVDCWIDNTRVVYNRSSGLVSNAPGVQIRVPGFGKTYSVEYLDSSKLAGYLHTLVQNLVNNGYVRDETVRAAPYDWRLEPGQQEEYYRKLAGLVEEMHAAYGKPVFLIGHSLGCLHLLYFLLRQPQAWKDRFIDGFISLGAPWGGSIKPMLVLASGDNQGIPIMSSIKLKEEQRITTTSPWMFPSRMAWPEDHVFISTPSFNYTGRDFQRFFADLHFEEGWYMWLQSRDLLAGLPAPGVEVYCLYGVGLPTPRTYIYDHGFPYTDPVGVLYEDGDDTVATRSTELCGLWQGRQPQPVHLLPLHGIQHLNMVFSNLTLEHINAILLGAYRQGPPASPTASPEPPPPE
On to “AVLDLFRELLEELKQKLK* (not fully specified (N-terminus, C-terminus); printed as AVLDLFRELLEELKQKLK*) [Peptide 203]”, for which the “ACTIVITY (%) LCAT” value is on record as 66%.

As for AVLDLFRELLNELLEALKQKLK [Peptide 29], the “ACTIVITY (%) LCAT” value is 39%.

Consider AVLELFENLLERLLDALQKKLK [Peptide 153], for which the “ACTIVITY (%) LCAT” value is reported as 49%.

On to “DVLDLFRELLEELKQKLK* (not fully specified (N-terminus, C-terminus); printed as DVLDLFRELLEELKQKLK*) [Peptide 221]”, for which the “ACTIVITY (%) LCAT” value is given as 12%.

As to DWFKAFYDKFFEKFKEFF [Peptide 247], the “ACTIVITY (%) LCAT” value is given as 3%.

In the case of DWFKAFYDKVFEKFKEFF [Peptide 241], the “ACTIVITY (%) LCAT” value is listed as 8%.

For “GIKKFLGSIWKFIKAFVG [Peptide 242, 18L peptide (Degreat et al., 1990), reference compound]”, the “ACTIVITY (%) LCAT” value is listed as 7%.

“GVLDLFRELLEELKQKLK* (not fully specified (N-terminus, C-terminus); printed as GVLDLFRELLEELKQKLK*) [Peptide 198]”: the “ACTIVITY (%) LCAT” value was 80%.

Regarding GVLDLFRELLNEGLEALKQKLK [Peptide 13], the “ACTIVITY (%) LCAT” value is 67%.

For the substance GVLDLFRELLNELLEALKQKLK [Peptide 18], the “ACTIVITY (%) LCAT” value was 58%.

Consider GVLDLFRELLNELLEALKQKLKK [Peptide 2], for which the “ACTIVITY (%) LCAT” value is reported as 105%.

As to GVLELFLNLLERLLDALQKKLK [Peptide 177], the “ACTIVITY (%) LCAT” value was 10%.

Turning to LVLDLFRELLNELLEALKQKLK [Peptide 59], the “ACTIVITY (%) LCAT” value is 17%.

Turning to “NVLDLFRELLEELKQKLK* (not fully specified (N-terminus, C-terminus); printed as NVLDLFRELLEELKQKLK*) [Peptide 200]”, the “ACTIVITY (%) LCAT” value is reported as 75%.

On to “PALELFKDLLEEFRQRLK* (not fully specified (N-terminus, C-terminus); printed as PALELFKDLLEEFRQRLK*) [Peptide 213]”, for which the “ACTIVITY (%) LCAT” value is given as 42%.

As to “PALELFKDLLEELRQKLR* (not fully specified (N-terminus, C-terminus); printed as PALELFKDLLEELRQKLR*) [Peptide 202]”, the “ACTIVITY (%) LCAT” value was 70%.

With “PALELFKDLLEELRQRLK* (not fully specified (N-terminus, C-terminus); printed as PALELFKDLLEELRQRLK*) [Peptide 208]”, the “ACTIVITY (%) LCAT” value is 48%.

On to “PELDEFREKLNEXLEALKQKLK (PELDEFREKLNE[Aib]LEALKQKLK; not fully specified (C-terminus)) [Peptide 117]”, for which the “ACTIVITY (%) LCAT” value is 0%.

In the case of “PHLDEFREKLNEXLEALKQKLK (PHLDEFREKLNE[Aib]LEALKQKLK; not fully specified (C-terminus)) [Peptide 116]”, the “ACTIVITY (%) LCAT” value was 0%.

As for “PKLDEFREKLNEXLEALKQKLK (PKLDEFREKLNE[Aib]LEALKQKLK; not fully specified (C-terminus)) [Peptide 115]”, the “ACTIVITY (%) LCAT” value is listed as 0%.

Take “PLLDLFKELLEELKQKLK* (not fully specified (N-terminus, C-terminus); printed as PLLDLFKELLEELKQKLK*) [Peptide 201]”: the “ACTIVITY (%) LCAT” value was 74%.

Consider PLLELFENLLEKLLDALQKKLK [Peptide 183], for which the “ACTIVITY (%) LCAT” value is recorded as 6%.

For PLLELFENLLERLLDALQKKLK [Peptide 150], the “ACTIVITY (%) LCAT” value was 57%.

In the case of PLLELFKELLQELLEALKQKLK [Peptide 23], the “ACTIVITY (%) LCAT” value was 54%.

As to “PLLELLKELLEELKQKLK* (not fully specified (N-terminus, C-terminus); printed as PLLELLKELLEELKQKLK*) [Peptide 206]”, the “ACTIVITY (%) LCAT” value is listed as 57%.

On to PVFELFENLLERLLDALQKKLK [Peptide 152], for which the “ACTIVITY (%) LCAT” value was 50%.

As to PVLDAFRELAEALAQLKK [Peptide 225], the “ACTIVITY (%) LCAT” value is given as 1%.

Take PVLDAFRELGEALLQLKK [Peptide 226]: the “ACTIVITY (%) LCAT” value is 1%.

PVLDAFRELLEALLQLKK [Peptide 222]: the “ACTIVITY (%) LCAT” value was 8%.

PVLDEFREKLNEELEALWQKLK [Peptide 121]: the “ACTIVITY (%) LCAT” value is 0%.

In the case of “PVLDEFREKLNEELEAXKQKLK (PVLDEFREKLNEELEA[Aib]KQKLK; not fully specified (C-terminus)) [Peptide 119]”, the “ACTIVITY (%) LCAT” value is listed as 0%.

With PVLDEFREKLNEELEWLKQKLK [Peptide 122], the “ACTIVITY (%) LCAT” value is reported as 0%.

As to “PVLDEFREKLNEELEXLKQKLK (PVLDEFREKLNEELE[Aib]LKQKLK; not fully specified (C-terminus)) [Peptide 120]”, the “ACTIVITY (%) LCAT” value was 0%.

Consider PVLDEFREKLNELLEALKQKLK [Peptide 84], for which the “ACTIVITY (%) LCAT” value is listed as 7%.

With “PVLDEFREKLNELXEALKQKLK (PVLDEFREKLNEL[Aib]EALKQKLK) [Peptide 71]”, the “ACTIVITY (%) LCAT” value is on record as 11%.

In the case of “PVLDEFREKLNEXLEALEQKLK (PVLDEFREKLNE[Aib]LEALEQKLK) [Peptide 118]”, the “ACTIVITY (%) LCAT” value was 0%.

“PVLDEFREKLNEXLEALKQKL~ (PVLDEFREKLNE[Aib]LEALKQKL; not fully specified (C-terminus); printed as PVLDEFREKLNEXLEALKQKL~) [Peptide 58]”: the “ACTIVITY (%) LCAT” value is listed as 18%.

As for “PVLDEFREKLNEXLKALKQKLK (PVLDEFREKLNE[Aib]LKALKQKLK; not fully specified (C-terminus)) [Peptide 93]”, the “ACTIVITY (%) LCAT” value is recorded as 5%.

For the substance “PVLDEFREKLNEXLWALKQKLK (PVLDEFREKLNE[Aib]LWALKQKLK; not fully specified (C-terminus)) [Peptide 89]”, the “ACTIVITY (%) LCAT” value is 6%.

With “PVLDEFREKLNEXMEALKQKLK (PVLDEFREKLNE[Aib]MEALKQKLK; not fully specified (C-terminus)) [Peptide 114]”, the “ACTIVITY (%) LCAT” value was 0%.

As to “PVLDEFREKLNEXSEALKQKLK (PVLDEFREKLNE[Aib]SEALKQKLK; not fully specified (C-terminus)) [Peptide 112]”, the “ACTIVITY (%) LCAT” value is given as 0%.

“PVLDEFREKLNEXXEALKQKLK (PVLDEFREKLNE[Aib][Aib]EALKQKLK; not fully specified (C-terminus)) [Peptide 110]”: the “ACTIVITY (%) LCAT” value is given as 0%.

As to “PVLDEFREKLNKXLEALKQKLK (PVLDEFREKLNK[Aib]LEALKQKLK; not fully specified (C-terminus)) [Peptide 77]”, the “ACTIVITY (%) LCAT” value was 9%.

On to “PVLDEFREKLWEXLEALKQKLK (PVLDEFREKLWE[Aib]LEALKQKLK; not fully specified (C-terminus)) [Peptide 43]”, for which the “ACTIVITY (%) LCAT” value is recorded as 25%.

Turning to “PVLDEFREKLWEXWEALKQKLK (PVLDEFREKLWE[Aib]WEALKQKLK; not fully specified (C-terminus)) [Peptide 111]”, the “ACTIVITY (%) LCAT” value is reported as 0%.

Take “PVLDEFRELLKEXLEALKQKLK (PVLDEFRELLKE[Aib]LEALKQKLK; not fully specified (C-terminus)) [Peptide 68]”: the “ACTIVITY (%) LCAT” value is recorded as 14%.

As for “PVLDEFRELLNEELEALKQKAK (PVLDEFRELLNEELEALKQKLK) [Peptide 103]”, the “ACTIVITY (%) LCAT” value is on record as 1%.

As to PVLDEFRELLNELLEALKQKLK [Peptide 79], the “ACTIVITY (%) LCAT” value was 9%.
